Laboratory results: PMC12188319

Biological target: FcγRIIIa (UniProt P08637)
Experiment: SPR

UniProt P08637, sequence (P08637 17-254): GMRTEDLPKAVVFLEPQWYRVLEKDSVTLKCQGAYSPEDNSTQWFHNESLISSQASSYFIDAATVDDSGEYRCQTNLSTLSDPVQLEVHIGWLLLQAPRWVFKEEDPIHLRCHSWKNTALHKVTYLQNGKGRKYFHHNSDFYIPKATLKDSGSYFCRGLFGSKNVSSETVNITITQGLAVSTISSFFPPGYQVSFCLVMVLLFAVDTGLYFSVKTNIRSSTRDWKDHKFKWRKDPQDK

Substance: JSKN003 (bispecific antibody)
- Kd: 150 nM
